According to the supplement of paper PMC10567573:

B1: ZBED2 (parent)
chain: FHLAPARAGHHPNQYATCRLCGRQ
B2: STEAP1 (parent)
chain: WMLTRKQFGLLSFFFAVLHAIYSL

Variants of: B1
Test: protein stability index of a GFP-peptide fusion (GPS, HEK-293T) (PSI 1-6); higher = more stable
Conditions: c terminus: a fixed tail appended
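Further: lentivirally expressed fusions sorted by FACS into six bins by GFP to DsRed ratio, PSI derived from sequencing read proportions per bin multiplied by bin number.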

Point of comparison: Y15P, protein stability index 1.07. Against it:
- A8I — higher, 2.73
- L20R — higher, 1.92
- N13Q — higher, 1.98
- L20Y — higher, 3.71
- T17G — higher, 2.76
- R19Y — higher, 1.16
- R7I — higher, 1.55

Variants of: B2
Test: as above
Conditions: c terminus: a fixed tail appended

Point of comparison: S12D, protein stability index 1.28. Against it:
- W1A — higher, 1.91
- W1C — higher, 1.82
- W1D — higher, 2.04
- W1E — higher, 1.58
- W1F — higher, 1.71
- W1G — higher, 1.91
- W1H — higher, 2.1
- W1I — higher, 2.44
- W1K — higher, 1.63
- W1L — higher, 2.24
- W1M — higher, 1.88
- W1N — higher, 2.35
- W1P — higher, 2.13
- W1Q — higher, 1.85
- W1R — higher, 2.01
- W1S — higher, 1.58
- W1T — higher, 2.75
- W1V — higher, 2.18
- W1Y — higher, 2.37
- M2A — higher, 1.74
- M2C — higher, 1.49
- M2D — higher, 1.58
- M2E — higher, 2.08
- M2F — higher, 1.73
- M2G — higher, 1.46
- M2H — higher, 1.7
- M2I — higher, 1.64
- M2K — higher, 1.78
- M2L — higher, 1.97
- M2N — higher, 2.18
- M2P — higher, 2.23
- M2Q — higher, 1.77
- M2R — higher, 1.9
- M2S — higher, 1.52
- M2T — higher, 1.94
- M2V — higher, 1.85
- M2W — higher, 1.75
- M2Y — higher, 1.99
- L3A — higher, 1.73
- L3C — higher, 3.54
- L3D — higher, 2.93
- L3E — higher, 1.57
- L3F — higher, 2.74
- L3G — higher, 1.76
- L3H — higher, 2.09
- L3I — higher, 2.59
- L3K — higher, 1.71
- L3M — higher, 2.22
- L3N — higher, 2.1
- L3P — higher, 2.27
- L3Q — higher, 2.05
- L3R — higher, 1.71
- L3S — higher, 1.66
- L3T — higher, 2.36
- L3V — higher, 1.52
- L3W — higher, 1.73
- L3Y — higher, 2.06
- T4A — the same, 1.28
- T4C — higher, 1.8
- T4D — higher, 1.66
- T4E — lower, 1.1
- T4F — higher, 2.31
- T4G — higher, 1.63
- T4H — higher, 1.6
- T4I — higher, 2.3
- T4K — higher, 2.13
- T4L — higher, 2.77
- T4M — higher, 1.69
- T4N — higher, 1.99
- T4P — higher, 1.7
- T4Q — higher, 2.35
- T4R — higher, 1.59
- T4S — higher, 1.62
- T4V — higher, 1.92
- T4W — higher, 1.89
- T4Y — higher, 1.41
- R5A — lower, 1.04
- R5C — higher, 1.52
- R5D — higher, 1.96
- R5E — higher, 2.03
- R5F — higher, 2.14
- R5G — higher, 2.29
- R5H — higher, 3.39
- R5K — higher, 1.52
- R5M — higher, 2.47
- R5N — higher, 2.12
- R5P — higher, 2.2
- R5Q — higher, 2.21
- R5S — higher, 2.07
- R5T — higher, 3.62
- R5W — higher, 2.1
- R5Y — higher, 2.77
- K6C — higher, 2.16
- K6D — lower, 1.18
- K6E — higher, 2.56
- K6F — higher, 1.79
- K6H — higher, 3.26
- K6L — higher, 3.1
- K6M — higher, 2.07
- K6N — higher, 2.32
- K6P — higher, 1.8
- K6Q — higher, 2.48
- K6R — higher, 1.88
- K6S — higher, 2.85
- K6T — higher, 2.08
- K6V — higher, 3.54
- K6Y — higher, 3.86
- Q7A — higher, 2.49
- Q7C — higher, 1.82
- Q7D — higher, 2.01
- Q7E — lower, 1.21
- Q7F — higher, 1.47
- Q7G — higher, 1.78
- Q7H — higher, 2.53
- Q7I — higher, 1.61
- Q7K — higher, 1.8
- Q7L — higher, 1.94
- Q7M — higher, 3.42
- Q7N — higher, 2.23
- Q7P — higher, 1.45
- Q7R — higher, 1.7
- Q7S — higher, 1.52
- Q7T — higher, 2.17
- Q7V — higher, 3.1
- Q7W — higher, 1.86
- Q7Y — higher, 2.28
- F8A — higher, 1.74
- F8C — higher, 1.67
- F8D — higher, 2.31
- F8E — higher, 1.64
- F8G — lower, 1.18
- F8H — higher, 2.16
- F8I — higher, 1.5
- F8K — higher, 1.67
- F8L — higher, 2.04
- F8M — higher, 1.94
- F8N — higher, 1.73
- F8P — higher, 1.64
- F8Q — higher, 2.11
- F8R — higher, 2.31
- F8S — higher, 1.84
- F8T — higher, 3.12
- F8V — higher, 2.14
- F8W — higher, 1.88
- F8Y — higher, 1.84
- G9A — higher, 2.27
- G9C — higher, 1.89
- G9D — higher, 3.04
- G9E — higher, 1.99
- G9F — higher, 1.94
- G9H — higher, 2
- G9I — higher, 1.83
- G9K — higher, 2.04
- G9L — higher, 1.89
- G9M — higher, 2.12
- G9N — higher, 1.46
- G9Q — higher, 2.07
- G9R — higher, 2.97
- G9S — higher, 1.98
- G9T — lower, 1.25
- G9V — higher, 1.83
- G9W — higher, 2.24
- G9Y — higher, 2.75
- L10A — higher, 1.76
- L10C — higher, 1.98
- L10D — higher, 2.52
- L10E — higher, 2.17
- L10F — higher, 1.85
- L10G — higher, 2
- L10H — higher, 2.09
- L10I — higher, 2.05
- L10K — higher, 1.73
- L10M — higher, 1.83
- L10N — higher, 1.99
- L10P — higher, 1.33
- L10Q — higher, 3.24
- L10R — higher, 4.36
- L10S — higher, 1.53
- L10T — higher, 1.96
- L10V — higher, 1.52
- L10W — higher, 1.35
- L10Y — higher, 1.66
- L11A — higher, 2.01
- L11C — higher, 1.48
- L11D — higher, 2.23
- L11E — higher, 2.43
- L11F — higher, 1.72
- L11G — higher, 1.96
- L11I — higher, 2.31
- L11K — higher, 1.34
- L11M — higher, 2.52
- L11N — higher, 3.38
- L11P — higher, 1.57
- L11Q — higher, 1.67
- L11R — higher, 1.51
- L11S — higher, 1.62
- L11T — higher, 1.95
- L11V — higher, 2.15
- L11W — higher, 1.72
- L11Y — higher, 2.31
- S12A — higher, 2.05
- S12C — higher, 1.88
- S12E — higher, 2.95
- S12F — higher, 1.9
- S12G — higher, 1.75
- S12H — higher, 1.94
- S12I — higher, 1.61
- S12K — higher, 1.86
- S12L — higher, 1.66
- S12M — higher, 1.67
- S12N — higher, 2.05
- S12P — higher, 3.09
- S12Q — higher, 2.38
- S12R — higher, 2.57
- S12T — higher, 1.84
- S12V — higher, 1.67
- S12W — higher, 2.76
- S12Y — lower, 1.25
- F13A — higher, 3.27
- F13C — higher, 2.02
- F13E — higher, 4.58
- F13G — higher, 2.25
- F13H — higher, 3.2
- F13I — higher, 2.11
- F13K — higher, 2.38
- F13L — higher, 2.65
- F13M — higher, 2.13
- F13P — higher, 1.95
- F13Q — higher, 1.78
- F13R — higher, 2.44
- F13T — higher, 2.69
- F13V — higher, 3.35
- F13W — higher, 1.67
- F13Y — higher, 1.95
- F14A — higher, 3.09
- F14C — higher, 2.35
- F14D — higher, 3.4
- F14E — higher, 3.11
- F14G — higher, 2.11
- F14H — higher, 2
- F14I — higher, 2.96
- F14K — higher, 2.49
- F14L — higher, 1.73
- F14M — higher, 1.41
- F14N — higher, 2.85
- F14P — higher, 2.09
- F14Q — higher, 3.11
- F14R — higher, 1.51
- F14S — higher, 2.82
- F14T — higher, 2.46
- F14V — higher, 1.69
- F14W — higher, 1.82
- F14Y — higher, 1.47
- F15A — higher, 1.82
- F15C — higher, 1.77
- F15D — higher, 2.78
- F15E — higher, 2.7
- F15G — higher, 1.58
- F15H — higher, 1.73
- F15I — higher, 1.94
- F15K — higher, 1.58
- F15L — higher, 2
- F15M — higher, 1.62
- F15N — higher, 1.4
- F15P — higher, 1.78
- F15Q — higher, 2.62
- F15R — higher, 1.7
- F15S — higher, 1.74
- F15T — higher, 1.32
- F15V — higher, 1.51
- F15W — higher, 1.55
- F15Y — higher, 1.71
- A16C — higher, 1.69
- A16D — higher, 2.07
- A16E — higher, 1.67
- A16F — higher, 1.93
- A16G — higher, 1.77
- A16H — higher, 1.76
- A16I — higher, 1.77
- A16K — higher, 1.46
- A16L — higher, 1.64
- A16M — lower, 1.13
- A16N — higher, 1.88
- A16P — higher, 1.59
- A16Q — higher, 1.52
- A16R — higher, 1.93
- A16S — higher, 1.45
- A16T — higher, 2.63
- A16V — higher, 1.51
- A16W — higher, 2.19
- A16Y — higher, 1.54
- V17A — higher, 2.25
- V17C — higher, 2.6
- V17D — higher, 5.3
- V17E — higher, 2.34
- V17F — higher, 3.24
- V17G — higher, 2.58
- V17H — higher, 3.31
- V17I — higher, 1.73
- V17K — higher, 2.53
- V17L — higher, 1.7
- V17M — higher, 2.85
- V17N — higher, 4.05
- V17P — higher, 2.19
- V17Q — higher, 3.15
- V17S — higher, 2.07
- V17T — higher, 2.33
- V17W — higher, 2.33
- V17Y — higher, 2.99
- L18A — higher, 2.43
- L18C — higher, 2.75
- L18D — higher, 3.5
- L18E — higher, 3.98
- L18F — higher, 1.63
- L18G — higher, 2.66
- L18H — higher, 2.03
- L18I — higher, 2
- L18K — higher, 3.01
- L18P — higher, 3.09
- L18Q — higher, 2.82
- L18R — higher, 1.8
- L18S — higher, 1.86
- L18T — higher, 1.92
- L18V — higher, 1.66
- L18W — higher, 1.74
